According to US20210069341A1 (published 2021):

T1: human FcγRI (human, UniProt P12314 16-288)
T1 chain: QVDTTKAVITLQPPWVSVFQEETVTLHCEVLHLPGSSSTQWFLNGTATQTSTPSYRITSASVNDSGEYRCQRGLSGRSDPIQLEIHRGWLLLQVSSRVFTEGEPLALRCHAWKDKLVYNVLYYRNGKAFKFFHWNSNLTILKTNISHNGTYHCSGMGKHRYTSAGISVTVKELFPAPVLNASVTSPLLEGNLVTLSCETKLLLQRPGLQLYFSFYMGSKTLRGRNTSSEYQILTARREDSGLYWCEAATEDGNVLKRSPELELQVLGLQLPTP

T2: human FcγRIIa (human, UniProt P12318 36-218)
T2 chain: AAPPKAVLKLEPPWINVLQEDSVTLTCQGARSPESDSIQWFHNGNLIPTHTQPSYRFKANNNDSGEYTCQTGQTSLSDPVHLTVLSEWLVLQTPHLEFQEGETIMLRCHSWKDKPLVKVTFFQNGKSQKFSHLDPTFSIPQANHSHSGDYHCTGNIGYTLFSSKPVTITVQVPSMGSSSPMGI

T3: human FcγRIIb (human, UniProt P31994 46-217)
T3 chain: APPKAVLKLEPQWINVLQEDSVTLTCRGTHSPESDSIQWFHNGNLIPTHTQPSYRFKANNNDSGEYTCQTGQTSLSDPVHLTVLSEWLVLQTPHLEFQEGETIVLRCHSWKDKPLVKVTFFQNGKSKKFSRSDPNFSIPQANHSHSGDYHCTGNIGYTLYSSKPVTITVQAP


What was measured:
[1] = target: T1, human FcγRI; assay: binding affinity
[2] = target: human FcRn protein (human, UniProt P55899 24-297; P61769 21-119); assay: binding affinity; pH 6
[3] = target: human FcγRIIIa, 158V allele (human, UniProt P08637 17-208); assay: binding affinity
Chain of human FcγRIIIa, 158V allele (P08637 17-208 F176V): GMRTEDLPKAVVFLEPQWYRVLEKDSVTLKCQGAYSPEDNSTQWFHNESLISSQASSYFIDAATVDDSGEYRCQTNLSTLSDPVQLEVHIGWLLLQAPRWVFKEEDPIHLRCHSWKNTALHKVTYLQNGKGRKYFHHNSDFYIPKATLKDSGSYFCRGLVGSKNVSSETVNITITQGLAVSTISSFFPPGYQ

[4] = target: human FcγRIIIa, 158F allele (human, UniProt P08637 17-208); assay: binding affinity
Chain of human FcγRIIIa, 158F allele (P08637 17-208): as the sequence (P08637 17-208 F176V) above, with V160F counted along it

[5] = target: T2, human FcγRIIa; assay: binding affinity
[6] = target: T3, human FcγRIIb; assay: binding affinity

Kd [1] | Kd [2] | Kd [3] | Kd [4] | Kd [5] | Kd [6] | Binder
~0.133 µM | 1.05 µM | – | – | – | – | antibody with the C239ins cysteine engineered Fc region (Fc receptor affinity analysis) (antibody) Fc: APELLGGPSCVFLFPPKPKDTLMISRTPEVTCVVVDVSHEDPEVKFNWYVDGVEVHNAKTKPREEQYNSTYRVVSVLTVLHQDWLNGKEYKCKVSNKALPAPIEKTISKAKGQPREPQVYTLPPSRDELTKNQVSLTCLVKGFYPSDIAVEWESNGQPENNYKTTPPVLDSDGSFFLYSKLTVDKSRWQQGNVFSCSVMHEALHNHYTQKSLSLSPGK
~0.016 µM | 0.976 µM | 1.46 µM | 5.7 µM | 2.54 µM | 6.31 µM | antibody with the L234F/S239A/S442C triple mutation (Fc receptor affinity analysis) (antibody) Fc: APEFLGGPAVFLFPPKPKDTLMISRTPEVTCVVVDVSHEDPEVKFNWYVDGVEVHNAKTKPREEQYNSTYRVVSVLTVLHQDWLNGKEYKCKVSNKALPAPIEKTISKAKGQPREPQVYTLPPSRDELTKNQVSLTCLVKGFYPSDIAVEWESNGQPENNYKTTPPVLDSDGSFFLYSKLTVDKSRWQQGNVFSCSVMHEALHNHYTQKSLCLSPGK
